Assay results published in the supplement of paper PMC10567573.
± gives the standard deviation.

Assay: protein stability index of a GFP-peptide fusion (GPS, HEK-293T) (PSI 1-6); higher = more stable
Conditions: c terminus: a fixed tail appended
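Further: 24-mer peptide tiles fused after GFP, lentivirally expressed, FACS-sorted into six equal bins by GFP/DsRed ratio, decoded by Illumina sequencing, PSI is the read-weighted mean bin number.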

| Sequence | protein stability index (treatment: DMSO) | protein stability index (treatment: MLN4924 1 uM, 8 h) |
| --- | --- | --- |
| SWEKVTGHNSPLYKRQEESGAAAS [CHIT1] | 4.77 ± 0.37 | 4.51 ± 0.32 |
| SWVSELLWSLFVPFTVYQVRWLRP [AUP1] | 3.12 ± 0.27 | 2.81 ± 0.51 |
| SYFKCVQKEVLPSMRKIVATWMLE [CCND1] | 2.91 ± 0.76 | 2.46 ± 0.37 |
| SYLSLTSEDNTSFDRKKKSISLMY [SLA] | 2.94 ± 0.18 | 2.95 ± 0.25 |
| SYSIQKVIGFAKMIPGFRDLTSED [VDR] | 2.52 ± 0.29 | 2.88 ± 0.12 |
| SYSSCGDFHYCDREHVCRKDQRNP [RBMY1A1] | 4.06 ± 0.41 | 4.09 ± 0.1 |
| SYTTTTTITAPPSRVLQNGGDKLE [SCD] | 4.85 ± 0.23 | 4.81 ± 0.29 |
| SYVHILSAILQFPSTLGRCKAFST [OR10K2] | 3.38 ± 0.61 | 3.01 ± 0.63 |
| TADEIPMEPGDIIGVAGNHWDGYS [FUT8] | 4.21 ± 0.32 | 4.16 ± 0.23 |
| TAEAEELKPFFMKEVGSHFDDFVT [SOAT1] | 3.91 ± 0.25 | 3.94 ± 0.34 |
| TAERKQEQKTGTEAEAADSGAVGA [MFSD9] | 5.56 ± 0.28 | 5.65 ± 0.23 |
| TAVHGRFTRSQTLIQNGGEIDCVD [ANKRD44] | 4.34 ± 0.14 | 4.48 ± 0.19 |
| TCTLLLLYSLAPTMGAVVLSSTLL [MFSD9] | 3.22 ± 0.52 | 3.17 ± 0.28 |
| TDNGTFNLSRGQTPLTEGSEDLDG [RETREG3] | 5.25 ± 0.26 | 5.45 ± 0.25 |
| TEFKELDGLREALANLRGLSEEER [CCDC89] | 5.05 ± 0.28 | 4.85 ± 0.28 |
| TFESPADAKDAARDMNGKSLDGKA [RBMX] | 5.39 ± 0.3 | 5.55 ± 0.12 |
| TFFEVSPLCNFNITESFTELARIV [RAB40B] | 2.24 ± 0.51 | 2.14 ± 0.16 |
| TFTASFSGKVFPFFAVWKKGSCLT [TRIM15] | 2.46 ± 0.47 | 2.34 ± 0.42 |
| TGECKELEKKNEALKERADSLAKE [ATF4] | 5.54 ± 0.3 | 5.59 ± 0.18 |
| TGLNNGRIKIWDVYTGKLLLNLVD [WSB1] | 2.54 ± 1.3 | 2.25 ± 0.61 |
| TGRFSFTLPYPVKIKVRFSFFLQI [HACD3] | 3.14 ± 0.37 | 2.92 ± 0.17 |
| THACREYLKNLPLLSKYCGYREDN [TPH1] | 2.22 ± 0.26 | 2.18 ± 0.41 |
| TKGEKIMLAIITKMTLTQVSTWFA [IRX6] | 2.97 ± 0.5 | 2.95 ± 0.68 |

| Sequence | protein stability index (treatment: DMSO) | protein stability index (treatment: MLN4924 1 uM, 8 h) |
| --- | --- | --- |
| TKLEAEIVTLRHVLAAKERRCGEL [TPD52L3] | 2.89 ± 0.22 | 2.78 ± 0.35 |
| TLAQTISEAAIGGAMLGQTTSEEA [HDAC6] | 4.66 ± 0.32 | 4.78 ± 0.28 |
| TLNQLQSLQNSLECAMETTEEQTR [NECAB1] | 4.94 ± 0.13 | 4.97 ± 0.28 |
| TNTHPPASLPSQKYPGPQAEGDSE [CHGA] | 5.43 ± 0.2 | 5.57 ± 0.13 |
| TPEEQGELEPLKGNFDWEAIFDAG [FOXJ1] | 5.29 ± 0.28 | 5.41 ± 0.088 |
| TPHTPKSLLSKARGIDSSSVKLRG [WEE1] | 4.26 ± 0.54 | 4.08 ± 0.28 |
| TPLHLDLTQLHRLSLESSPDAPDH [PLEKHN1] | 4.59 ± 0.29 | 4.63 ± 0.23 |
| TPPPSPNTQTPVQPPPPPPPPPMQ [CCDC6] | 5.12 ± 0.084 | 5.26 ± 0.25 |
| TPSQEHLKHQTVYRLLKCAPRGKN [FEM1A] | 3.61 ± 0.15 | 3.62 ± 0.12 |
| TPTSLSSLSNAVANTMEHLSLLDN [FBXO33] | 4.44 ± 0.065 | 4.44 ± 0.21 |
| TQKLSKIETLRLAKNYIWALSEIL [NEUROD6] | 2.61 ± 0.49 | 2.67 ± 0.47 |
| TRHVFTCGRRGIKVWSLTGQVAED [TLE6] | 2.62 ± 0.14 | 2.68 ± 0.25 |
| TRPKKMGSQLPKPRMLRESGHGDA [FATE1] | 4.53 ± 0.19 | 4.53 ± 0.22 |
| TRTAEPAESSVPPVTSIGIDNLGL [SLC35F2] | 4.48 ± 0.27 | 4.49 ± 0.11 |
| TSDASFHPAFLPQRQAIKGAFYRR [KCNG1] | 3.62 ± 0.097 | 3.66 ± 0.13 |
| TSFCGQQFILERGEYPRWDAWSGS [CRYBA1] | 2.77 ± 0.68 | 2.65 ± 0.39 |
| TSFSNYYRTWNVVVHDWLYSYVYQ [SOAT2] | 3.11 ± 0.27 | 3.01 ± 0.4 |
| TSGKLLLEADELCDDGGDGRGAVV [ZBTB22] | 5.36 ± 0.29 | 5.31 ± 0.1 |
| TSIEEGYERSFIHKIKHKHILAKN [IQUB] | 3.14 ± 0.16 | 3.29 ± 0.55 |
| TSSAKVDMTFEEEAQLLQLKVKCL [FKBP8] | 3.48 ± 0.28 | 3.54 ± 0.33 |
| TTVGYGDMKPITVGGKIVGSLCAI [KCNA4] | 2.23 ± 0.47 | 2.4 ± 0.27 |
| TVDKCFGRKKYDIDPRNGIPKLTP [SPATS1] | 3.45 ± 0.36 | 3.51 ± 0.23 |
| TVGGEERVSRKPTAAMRCMCPLYD [GAN] | 3.3 ± 0.21 | 3.46 ± 0.49 |

| Sequence | protein stability index (treatment: DMSO) | protein stability index (treatment: MLN4924 1 uM, 8 h) |
| --- | --- | --- |
| TVVREVIFLGFSSLARLQQLLFVI [OR10K2] | 3.15 ± 0.73 | 2.87 ± 0.55 |
| TWKKNRRQLAYSTVGTPDYIAPEV [STK38L] | 3.39 ± 0.2 | 3.48 ± 0.4 |
| VAPPEDKESESEAKVDGETASDSE [CDS2] | 5.55 ± 0.23 | 5.61 ± 0.18 |
| VAQLFNCMVGLLLIALLTWGYIRY [ATL3] | 3.11 ± 0.58 | 2.77 ± 0.42 |
| VCTISSTGPLQPQPKKPEDEPQET [PKD2L1] | 5.39 ± 0.21 | 5.48 ± 0.16 |
| VDRCGASVEAGGSVHFDGETIEGA [FEM1A] | 4.87 ± 0.24 | 4.92 ± 0.18 |
| VDVQTELYLEEIADRIIEVDMECQ [RSPH3] | 2.75 ± 0.32 | 3.12 ± 0.69 |
| VENRVVEEAKGLLDKVKDGGYRPA [ZBED1] | 4.82 ± 0.13 | 4.94 ± 0.094 |
| VFFFIFFVQDVLFVLQAIGIPGWG [SCAMP3] | 3.44 ± 0.83 | 2.93 ± 0.71 |
| VFITILIIALIALSVGQYNCPGQY [CD69] | 2.6 ± 0.38 | 2.61 ± 0.57 |
| VFNLFRTMGLRHLPVVNAVGEIVG [CLCN6] | 2.45 ± 0.21 | 2.29 ± 0.18 |
| VFRIFKLSRHSKGLQILGHTLRAS [KCNA4] | 2.39 ± 1 | 2.6 ± 0.68 |
| VGYTALVGSDAESWGWDLGRSRLY [SPSB4] | 2.21 ± 0.076 | 2.56 ± 0.48 |
| VHLVIWLLLVAKMSVGHLRLLSHD [JAGN1] | 3.39 ± 0.5 | 3.36 ± 0.63 |
| VIDRKVYNISEFTRRHPGGSRVIS [FADS1] | 2.66 ± 0.26 | 3.07 ± 0.062 |
| VKAEPFIKWLKEAEEESSGGEEED [EIF5] | 5.3 ± 0.28 | 5.4 ± 0.15 |
| VKRRRTASLSNQECQLYPRRSQQQ [SNURF] | 4.43 ± 0.18 | 4.45 ± 0.19 |
| VKSNTEQMREAFATAFSKLKPESS [ZBED1] | 4.34 ± 0.24 | 4.27 ± 0.18 |
| VKTWFQNQRMKSKRWQKNNWPKNS [NANOGP8] | 2.21 ± 0.57 | 2.42 ± 0.38 |
| VKVTFNKQDSLVILTIMATLKIRN [TMEM106C] | 2.92 ± 0.53 | 2.89 ± 0.32 |
| VLSLKEGAREEDLDAVEAQIGCKL [FBXO3] | 5.24 ± 0.49 | 4.6 ± 0.25 |
| VLSNMEKLFCIPVHGIRSVGTAAV [IMPA1] | 2.09 ± 0.47 | 2.12 ± 0.059 |
| VLSRLQDAAVVRPGFLSTAEEETL [ALKBH7] | 4.21 ± 0.17 | 4.12 ± 0.55 |

| Sequence | protein stability index (treatment: DMSO) | protein stability index (treatment: MLN4924 1 uM, 8 h) |
| --- | --- | --- |
| VLTAVDGGTPARSGTTLISVIVLD [PCDHGC5] | 2.34 ± 0.47 | 2.26 ± 0.22 |
| VLVLAVQVHAWQLYYSKKLLDSWF [JAGN1] | 3.23 ± 0.49 | 3.06 ± 0.91 |
| VLYTDKTYAMGHLIQRKKVHVFGD [TNFSF13B] | 2.28 ± 0.14 | 2.51 ± 0.41 |
| VNEFGMSGEDPTAAAPVAEVPTAA [CLPTM1] | 5.49 ± 0.26 | 5.39 ± 0.19 |
| VNEKLPQREGTGKTVSLQIFSVLN [SMOC2] | 2.7 ± 0.37 | 2.84 ± 0.4 |
| VNSSIKTFFCPNDTYNDMATLFFN [CLCN6] | 2.13 ± 0.31 | 2.26 ± 0.14 |
| VNVTIHFRLKTINLQSLINNEIPD [MCOLN1] | 3.28 ± 0.25 | 3.21 ± 0.25 |
| VPMILVGNKCDLEDERVVGKEQGQ [RAP1B] | 4.56 ± 0.35 | 4.72 ± 0.39 |
| VPVRRPARRRQSAGPWPRPKGSLS [RASAL3] | 4.73 ± 0.25 | 4.68 ± 0.23 |
| VQRLQAYTATEQEMQQQMSLGELC [TRIM14] | 4 ± 0.077 | 3.9 ± 0.21 |
| VQSEIFLHESYCMDTSHQPLLPAP [LYSMD4] | 2.93 ± 0.23 | 2.76 ± 0.28 |
| VRAWDLETGKLLWKVRYDTFIVSC [WDR88] | 2.67 ± 0.069 | 2.11 ± 0.48 |
| VRNDSCVVHEDFREDILSCYDVYS [PKD2L1] | 2.99 ± 0.34 | 3.16 ± 0.28 |
| VRSQTLPRTSEAQARKALFEKWEQ [SMTNL2] | 3.98 ± 0.28 | 4.16 ± 0.47 |
| VTEDLRLKDWEHSIALRNISLAKG [SCARA5] | 3.5 ± 0.26 | 3.59 ± 0.39 |
| VTGMELEFKRLASSKAHTSRFISA [PTPRD] | 2.71 ± 0.33 | 2.81 ± 0.4 |
| VTQDGRKIYFTDSSSKWQRRDYLL [APMAP] | 2.51 ± 0.18 | 2.41 ± 0.63 |
| VTSQATLLTITKAHSNAISNCCFT [WDR88] | 2.3 ± 0.55 | 2.18 ± 0.28 |
| VVCASYEDYGHWLLCLRAVTHREG [PLEKHN1] | 2.52 ± 0.56 | 2.62 ± 0.49 |
| VVEVENFLFVLGGEDQWNPNGKHS [KLHL14] | 2.39 ± 0.31 | 2.37 ± 0.19 |
